Here are results for five molecules from patent US20180258181A1 (Bayer, published 2018).

Experiment [1] addresses T1, mesothelin on CHO-A9 cells (CHO-K1 stably transfected with the GPI-anchored C-terminal part of mesothelin) (Homo sapiens (Human), UniProt Q13421 287-598, GPI anchor).
T1 construct: In the immunoblots the protein stood in a denatured cell extract; also called mesothelin-expressing CHO-A9 cells
Nature of the experiment: FACS with Scatchard analysis, IgG1 on CHO-A9 cells.

The target in experiment [2] is T1, mesothelin on CHO-A9 cells (CHO-K1 …). Nature of the experiment: live cell ELISA, IgG1 on CHO-A9 cells.
Experiment [3] has as its target T2, human mesothelin (recombinant, soluble, purified; 40 kDa C-terminal polypeptide of the mesothelin precursor) (human, UniProt Q13421 296-598, limits assumed).
T2 construct: also called soluble mesothelin
Nature of the experiment: Biacore pairwise binding, mesothelin (50 nM) captured by immobilized MF-T, second antibody 200 nM. On the procedure: Competitive binding of pairs of antibodies was determined by immobilizing one antibody to the sensor chip, binding soluble mesothelin to this antibody and immediately binding a second antibody to mesothelin. Pairs of antibodies which recognize the same or overlapping epitopes on mesothelin cannot bind simultaneously. All combinations of antibody pairs were tested. Representative data for MF-T are shown (A). Panel B depicts the relative positions of epitopes of seven anti-mesothelin antibodies, in which competition is depicted by overlapping circles.
Epitope grouping experiments were performed using Biacore by monitoring simultaneous binding of pairs of anti-mesothelin antibodies to immobilized mesothelin. Briefly, the first antibody was covalently immobilized to the sensor chip through primary amine coupling using n-hydroxysuccinamide ([…]) and N-ethyl-N′-dimethylaminopropyl carbodiimide (EDC). Unoccupied binding sites on the surface were then blocked with ethanolamide. Soluble mesothelin was captured on the surface via the immobilized antibody, therefore, the epitope of the capture antibody is blocked for all bound mesothelin molecules. A second antibody was immediately passed over the surface to bind to the immobilized mesothelin. Two antibodies recognizing the same or overlapping epitopes cannot bind to the mesothelin, whereas antibodies with distinct epitopes are able to bind. […]

T1 sequence (Q13421 other isoform, or with tags, fused parts or gaps limits assumed): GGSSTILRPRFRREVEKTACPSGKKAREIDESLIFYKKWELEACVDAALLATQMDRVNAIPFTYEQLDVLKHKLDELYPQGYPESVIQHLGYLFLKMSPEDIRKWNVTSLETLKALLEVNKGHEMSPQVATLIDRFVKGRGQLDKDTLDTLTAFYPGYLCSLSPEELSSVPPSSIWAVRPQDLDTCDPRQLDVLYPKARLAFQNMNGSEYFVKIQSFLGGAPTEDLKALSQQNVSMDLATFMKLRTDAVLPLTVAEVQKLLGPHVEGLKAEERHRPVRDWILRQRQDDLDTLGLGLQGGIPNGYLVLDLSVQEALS
T2 sequence (Q13421 other isoform, or with tags, fused parts or gaps limits assumed): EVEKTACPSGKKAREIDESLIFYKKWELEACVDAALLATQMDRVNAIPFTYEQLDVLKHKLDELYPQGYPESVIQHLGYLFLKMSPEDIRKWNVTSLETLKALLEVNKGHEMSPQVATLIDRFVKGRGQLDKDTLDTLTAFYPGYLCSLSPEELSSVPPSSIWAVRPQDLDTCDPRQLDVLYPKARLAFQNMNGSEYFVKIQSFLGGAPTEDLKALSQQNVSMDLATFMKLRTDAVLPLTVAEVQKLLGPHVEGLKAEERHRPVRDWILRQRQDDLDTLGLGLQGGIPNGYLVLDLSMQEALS

B1: MF-J IgG (antibody, V domains shown)
VH: QVELVQSGAEVKKPGESLKISCKGSGYSFTNYWIGWVRQMPGKGLEWMGVIMPSDSYTRYSPSFQGQVTISADKSISTAYLQWSSLKASDTAMYYCARYGHGMYGGALDVWGQGTLVTVSS
VL: DIVLTQSPATLSLSPGERATLSCRASQSVRSSRLAWYQQKPGQAPRLLIYGASKRATGVPARFSGSGSGTDFTLTISSLEPEDFATYYCQQYYDFPPTFGQGTKVEIKR
What is called EC50 is the concentration that produces a half-maximal response. Lower therefore signals higher potency in that assay. Take B1: the EC50 was 0.11 nM in experiment [1] and 3.9 nM in experiment [2].

B2: MF-428 (antibody, V domains shown)
VH: QVQLVESGGGLVQPGGSLRLSCAASGFTFSTYAMSWVRQAPGKGLEWVSFISGYGSSTYYADSVKGRFTISRDNSKNTLYLQMNSLRAEDTAVYYCARKMYWWSDGFDYWGQGTLVTVSS
VL: DIELTQPPSVSVAPGQTARISCSGDNLRSKYAHWYQQKPGQAPVLVIYSKDNRPSGIPERFSGSNSGNTATLTISGTQAEDEADYYCSSWAHDHKVFGGGTKLTVLG
Take B2: the binding result in experiment [3] is “binds”.

B3: MF-226 IgG (antibody, V domains shown)
VH: QVELVQSGAEVKKPGASVKVSCKASGYTFTGNYINWVRQAPGQGLEWMGIINPHGGDTKYAQKFQGRVTMTRDTSISTAYMELSSLRSEDTAVYYCARWHHGTWIFDYWGQGTLVTVSS
VL: DIVLTQPPSVSGAPGQRVTISCSGSSSNIGSNYVSWYQQLPGTAPKLLIYNDNQRPSGVPDRFSGSKSGTSASLAITGLQSEDEADYYCSTYDRRTFSVFGGGTKLTVLG
B3: the EC50 in experiment [1] was determined as 0.15 nM; in experiment [2], 0.4 nM.

B4: MF-L IgG (antibody, V domains shown)
VH: QVQLVESGGGLVQPGGSLRLSCAASGFTFSDYAMSWVRQAPGKGLEWVSAIMYDSSSTFYADSVKGRFTISRDNSKNTLYLQMNSLRAEDTAVYYCARINYIYKGVHFDYWGQGTLVTVSS
VL: DIVLTQSPATLSLSPGERATLSCRASQIVSGYLAWYQQKPGQAPRLLIYGASSRATGVPARFSGSGSGTDFTLTISSLEPEDFATYYCQQYYNFSFTFGQGTKVEIKR
For the molecule B4, the 50% effective concentration (EC50) came to 0.07 nM in experiment [1] and 0.8 nM in experiment [2].

B5: MF-T IgG (antibody, V domains shown)
VH: QVELVQSGAEVKKPGESLKISCKGSGYSFTSYWIGWVRQAPGKGLEWMGIIDPGDSRTRYSPSFQGQVTISADKSISTAYLQWSSLKASDTAMYYCARGQLYGGTYMDGWGQGTLVTVSS
VL: DIALTQPASVSGSPGQSITISCTGTSSDIGGYNSVSWYQQHPGKAPKLMIYGVNNRPSGVSNRFSGSKSGNTASLTISGLQAEDEADYYCSSYDIESATPVFGGGTKLTVLG
Consider B5, for which the EC50 stood at 0.27 nM in experiment [1] and 1.5 nM in experiment [2].
